From the Immune Epitope Database (IEDB)

What was measured:
HLA-A*02:01 [1] = assay: IEDB peptide-MHC binding, purified MHC/competitive/fluorescence; ≥ and ≤ were set here for values at or beyond the usual limits of such assays
HLA-A*26:01 = assay: IEDB peptide-MHC binding, purified MHC/competitive/radioactivity; filed as Kd, often an IC50 or EC50 that approximates it; ≥ and ≤ were set here for values at or beyond the usual limits of such assays
HLA-A*01:01 = assay: as above
HLA-A*30:02 = assay: as above
HLA-A*24:02 = assay: as above
HLA-A*23:01 = assay: as above
HLA-A*29:02 = assay: as above
HLA-A*31:01 = assay: as above; details: source organism: Vaccinia virus WR
HLA-A*68:01 = assay: as above; details: source organism: Vaccinia virus WR
HLA-A*33:01 = assay: as above; details: source organism: Vaccinia virus WR
HLA-A*11:01 = assay: as above; details: source organism: Vaccinia virus WR
HLA-A*03:01 [2] = assay: as above; details: source organism: Vaccinia virus WR
HLA-B*58:01 = assay: IEDB peptide-MHC binding, purified MHC/direct/fluorescence; filed as Kd, often an IC50 or EC50 that approximates it; ≥ and ≤ were set here for values at or beyond the usual limits of such assays; details: source organism: Mammarenavirus juninense
HLA-A*03:01 [3] = assay: as above; details: source organism: Corynebacterium jeikeium
HLA-A*02:01 [4] = assay: as above
HLA-A*02:03 = assay: IEDB peptide-MHC binding, purified MHC/competitive/radioactivity; filed as Kd, often an IC50 or EC50 that approximates it; ≥ and ≤ were set here for values at or beyond the usual limits of such assays
HLA-A*02:06 = assay: as above
HLA-A*02:02 = assay: as above
[5] = source organism: Zaire ebolavirus
[6] = source organism: Dengue virus 1 Brazil/97-11/1997
[7] = source organism: Mammarenavirus brazilense
[8] = source organism: Vaccinia virus WR
[9] = source organism: Dengue virus 2 Jamaica/1409/1983
[10] = source organism: Dengue virus 4 Philippines/H241/1956
[11] = source organism: Sudan ebolavirus
[12] = source organism: Lassa virus Josiah
[13] = source organism: Dengue virus 3 Martinique/1243/1999
[14] = source organism: Mammarenavirus whitewaterense
[15] = source organism: SARS coronavirus Tor2
[16] = source organism: Variola major virus

ATGFGTNET
IC50 (HLA-A*02:01 [1]; [5]): ≥ 393000 nM

ATLLAVSGVY
Kd (HLA-A*26:01; [6]): 2290 nM
Kd (HLA-A*01:01; [6]): 4920 nM
Kd (HLA-A*30:02; [6]): 2.47 nM

AYSLTLQGL
Kd (HLA-A*24:02; source organism: Homo sapiens): 45 nM

AYVNQAHHI
Kd (HLA-A*23:01; [7]): 47.6 nM
Kd (HLA-A*29:02; [7]): ≥ 73300 nM
Kd (HLA-A*24:02; [7]): 66.2 nM

DMFLTSVINR
Kd (HLA-A*31:01): 6.58 nM
Kd (HLA-A*68:01): 10.2 nM
Kd (HLA-A*33:01): 2.3 nM
Kd (HLA-A*11:01): 2420 nM
Kd (HLA-A*29:02; [8]): ≥ 42900 nM
Kd (HLA-A*03:01 [2]): 965 nM

DTIETLMLL
Kd (HLA-A*26:01; [6]): 141 nM

DTITYKCPL
Kd (HLA-A*26:01; [9]): 3380 nM

DTVTYECPL
Kd (HLA-A*26:01; [10]): 6130 nM

EFFLIVLLI
Kd (HLA-A*24:02; [9]): 3050 nM

ELIDGISLGL
Kd (HLA-A*26:01; source organism: Dengue virus 4 Dominica/814669/1981): 500 nM

ETEPPFGESY
Kd (HLA-A*26:01; [6]): 134 nM
Kd (HLA-A*01:01; [6]): 5.28 nM

FMNAVGHDW
Kd (HLA-B*58:01): 71 nM

FMWAHPGKK
Kd (HLA-A*03:01 [3]): 39 nM

FRSGVPPKV
IC50 (HLA-A*02:01 [1]; [11]): ≥ 169000 nM

GIKCIKKGV
IC50 (HLA-A*02:01 [1]; source organism: Vaccinia virus): ≥ 102000 nM

GLAGLQTDV
Kd (HLA-A*02:01 [4]; source organism: Giardia intestinalis): 175 nM

GVAGLITGG
IC50 (HLA-A*02:01 [1]; [5]): ≥ 77000 nM

GVPLLAMGCY
Kd (HLA-A*30:02; [10]): 105 nM

GYCLTRWMLI
Kd (HLA-A*23:01; [12]): 242 nM
Kd (HLA-A*29:02; [12]): 12200 nM
Kd (HLA-A*24:02; [12]): 1100 nM

HLTTLATIS
IC50 (HLA-A*02:01 [1]; [5]): 69800 nM

HTLIMIGSNA
Kd (HLA-A*26:01; [13]): ≥ 22700 nM

IILFQKAFS
IC50 (HLA-A*02:01 [1]; [11]): 67700 nM

ILDGKNCTL
Kd (HLA-A*02:01 [4]; source organism: Influenza A virus (A/turkey/Canada-Ontario/NS-01839-1/05(H3))): 95.1 nM

ILWDYFSLV
Kd (HLA-A*02:01 [4]; source organism: Mammarenavirus amapariense): 0.2 nM

ISQHNYRPGY
Kd (HLA-A*01:01; [6]): 11100 nM
Kd (HLA-A*30:02; [6]): 83.8 nM

ISSTPFAEY
Kd (HLA-A*01:01; [10]): 1890 nM
Kd (HLA-A*30:02; [10]): 319 nM

ISYKDREWCF
Kd (HLA-A*24:02; [10]): 1020 nM

ITVDDDGTM
Kd (HLA-A*26:01; [13]): 13900 nM

KATLTEGVY
Kd (HLA-A*30:02; [10]): 40.1 nM

KLPTLFGRGV
Kd (HLA-A*02:03; [8]): 32.6 nM
Kd (HLA-A*02:06; [8]): 52.6 nM
Kd (HLA-A*02:02; [8]): 190 nM

KNATWCLEV
Kd (HLA-A*02:03; [7]): 7010 nM
Kd (HLA-A*02:06; [7]): 2310 nM
Kd (HLA-A*02:02; [7]): 1610 nM

KTEHCDDFMT
Kd (HLA-A*02:03; [8]): ≥ 37700 nM
Kd (HLA-A*02:06; [8]): 11600 nM
Kd (HLA-A*02:02; [8]): 7820 nM

KYTDRKWCF
Kd (HLA-A*23:01; [13]): 180 nM
Kd (HLA-A*24:02; [13]): 138 nM

LAYVVIGLLF
Kd (HLA-A*23:01; [6]): 36.4 nM

LDFAKVASV
Kd (HLA-A*02:03; [14]): 452 nM
Kd (HLA-A*02:06; [14]): 10600 nM
Kd (HLA-A*02:02; [14]): 61.2 nM

LFQLIFFLT
Kd (HLA-A*26:01; [7]): ≥ 77900 nM
Kd (HLA-A*01:01; [7]): 3330 nM
Kd (HLA-A*30:02; [7]): 6090 nM
Kd (HLA-A*24:02; [7]): ≥ 22300 nM

LFWAVKPKI
Kd (HLA-A*23:01; [7]): 2120 nM
Kd (HLA-A*29:02; [7]): 9350 nM
Kd (HLA-A*24:02; [7]): 2770 nM

LIGNENYLDY
Kd (HLA-A*01:01; [6]): 6080 nM

LINLVQYRI
Kd (HLA-A*02:03; [8]): 583 nM
Kd (HLA-A*02:06; [8]): 5340 nM
Kd (HLA-A*02:02; [8]): 311 nM

LLGLILFVL
Kd (HLA-A*02:03; [8]): 1860 nM
Kd (HLA-A*02:06; [8]): 8140 nM
Kd (HLA-A*02:02; [8]): 266 nM

LMANLAPHLL
Kd (HLA-A*02:03; [15]): 1.46 nM
Kd (HLA-A*02:06; [15]): 115 nM
Kd (HLA-A*02:02; [15]): 0.228 nM

LMSFTILCLV
Kd (HLA-A*02:03; [15]): 90.6 nM
Kd (HLA-A*02:06; [15]): 39.6 nM
Kd (HLA-A*02:02; [15]): 0.338 nM

LNISGYNFSL
Kd (HLA-A*02:03; [12]): 4550 nM
Kd (HLA-A*02:06; [12]): 420 nM
Kd (HLA-A*02:02; [12]): 15.5 nM

LTFIKTTLSL
Kd (HLA-A*26:01; [6]): 11400 nM

LVIGFLFLA
Kd (HLA-A*02:03; [15]): 19.6 nM
Kd (HLA-A*02:06; [15]): ≤ 0.1 nM
Kd (HLA-A*02:02; [15]): 7.38 nM

LWMASVEPHW
Kd (HLA-A*23:01; [6]): 130 nM
Kd (HLA-A*24:02; [6]): 231 nM

LYAVATTFVT
Kd (HLA-A*24:02; [9]): 550 nM

MSYTMCSGKF
Kd (HLA-A*26:01; [10]): 1510 nM
Kd (HLA-A*01:01; [10]): 7720 nM
Kd (HLA-A*30:02; [10]): 81.8 nM

NLDDVYSYI
Kd (HLA-A*02:03; [16]): 96 nM
Kd (HLA-A*02:06; [16]): 91.8 nM
Kd (HLA-A*02:02; [16]): 0.722 nM

NLTIAWPRM
IC50 (HLA-A*02:01 [1]; source organism: Human alphaherpesvirus 1 strain 17): ≥ 50000 nM

NLYISDYKML
Kd (HLA-A*02:03; [8]): 1830 nM
Kd (HLA-A*02:06; [8]): ≥ 36000 nM
Kd (HLA-A*02:02; [8]): 1250 nM

NSEQGGRAY
Kd (HLA-A*01:01; source organism: Dengue virus 1 Singapore/S275/1990): 316 nM

NTNQGNILM
Kd (HLA-A*02:03; [8]): 1150 nM
Kd (HLA-A*02:06; [8]): 5940 nM
Kd (HLA-A*02:02; [8]): 1700 nM
